# Assay results from the RNAGym collection of RNA variant scans (doi:10.7554/elife.90254).
# B1: OR4K15 (parent)
# chain: GUUAACGGUCAUAGGCCAUGGAAACUAGGAGCACCAUUUCGCUGCCAGUGAAGAAAUGAACAAAGAAAAUCUGGGCCAGGCAGGCAUCAAAAGAAAUAGUCUUGCGCUCAACCAGAAAGUCUGUAAUCAUUUUAAGGGUA
# Variants of: B1
# Test: self-cleavage, relative activity (ratio to wild type); higher = more cleavage; in vitro, sequencing; the parent is a self-cleaving ribozyme
row,Variant,self-cleavage
1,A68C A118G,1.84
2,A67G A114U,0.03
3,A67G A114G,0.49
4,A68U U70C,0.43
5,A69G U70A,1.26
6,A69U U72C,0.36
7,A68G G99A,0.57
8,A66U U70A,0.62
9,A67G G137U,2.03
10,A68G G80A,0.21
11,A68U C113A,0.01
12,A67G C107U,0.01
13,A67G U133C,1.12
14,U70A U103A,0.67
15,A69U U108C,0.02
16,A69G G106A,0.02
17,A69U A95G,2.37
18,A68G U133C,1.87
19,A68G U122A,0.93
20,A68C A78G,0.24
21,A68U U72A,0.34
22,U70C A117U,0.59
23,A68G A92U,1.87
24,A67U U127C,1.01

row,Variant,self-cleavage
1,A69U U102C,2.2
2,A68G C121U,0.29
3,A68G A91G,1.18
4,A67G U127C,1.16
5,U70C U72C,0.31
6,U70C U72A,0.21
7,A68G G104A,0.04
8,A69C A96U,0.68
9,A69G U133C,1.33
10,A67G A95U,1.41
11,U70C U108C,0.02
12,U70C U108A,0.03
13,A68G A86G,1.41
14,A68G A86U,1.51
15,A69G A134G,1.17
16,A67G A98U,1.26
17,A68G A116U,0.21
18,A69G G80A,0.12
19,A67G A96U,1.03
20,A67G A96G,1.53
21,A69G A96G,1.52
22,A69G A96C,1.58
23,A69U A92G,2.17
24,A68G,0.98

row,Variant,self-cleavage
1,A68U,1.83
2,A68C,1.73
3,A69G G75C,0.16
4,A67G U132A,1.42
5,A67G A111U,0.12
6,U70C U131C,0.65
7,A67U A91G,1.91
8,A69G A86G,1.24
9,U70A C77U,2.04
10,A68G U103G,0.04
11,A68G C71A,0.6
12,A66U A117G,1.44
13,A68G C105G,0.03
14,U70C C128U,0.31
15,A67G A69C,1.68
16,A67G A69U,1.32
17,A66U U103C,0.48
18,U70C,0.47
19,U70A,0.83
20,U70G,0.88
21,A69G A91U,1.63
22,A69G A91G,1.21
23,A69G A129G,0.87
24,A66U U72A,0.2

row,Variant,self-cleavage
1,A69U G137U,2.12
2,A69U G137A,2.13
3,A68G A125G,0.48
4,A67C A117G,2.74
5,A69G A92U,1.3
6,A69G A92G,0.72
7,A68G A96G,1.04
8,A69G A114C,0.01
9,A69G A114U,0.1
10,A68U G75C,0.22
11,A69G A111C,0.02
12,A66U A94G,1.36
13,A67G A82C,0.13
14,A67G A82G,0.6
15,U70A U72A,0.24
16,U70A U72C,0.22
17,A67U G106C,0.01
18,A66U A111G,0.01
19,A67U A95G,2.49
20,U70C U124A,0.17
21,U70C U124C,0.27
22,A68G G123A,1.45
23,A67G A86G,1.22
24,A69G C101U,0.26

row,Variant,self-cleavage
1,A68C A90G,1.24
2,A68G G73U,0.07
3,A68G A82C,0.2
4,A68G A82U,0.22
5,A68G A82G,0.62
6,A68U A114U,0.06
7,A68U A69G,0.98
8,A69G U87A,1.29
9,A69G U87C,1.66
10,A69U A78C,0.31
11,A68G U131C,0.99
12,A68C A94G,1.69
13,A68G U87C,1.12
14,A67U A69G,1.13
15,U70C U102A,0.33
16,U70C A110G,0.06
17,A68G A126U,0.66
18,A68G A126G,0.6
19,A68U A91G,1.35
20,U70A U139A,0.23
21,A69G A116U,0.12
22,A69G A116G,0.56
23,C71A U124C,0.22
24,U70C G75A,0.21

row,Variant,self-cleavage
1,U70A A117G,0.03
2,A67G A134G,1.7
3,A67U A125G,1.2
4,A67G G83A,2.38
5,U70C A111G,0.02
6,C71A A78U,0.26
7,A69G A82U,0.18
8,A69G A82G,0.48
9,A68G U102A,0.85
10,A69G A95U,1.56
11,A68G U130A,0.91
12,A68G U130C,1.13
13,A69G U139A,1.69
14,U70A A118G,0.37
15,A67G A89U,1.53
16,A67G A89C,1.63
17,U70A A90G,1.12
18,C71A U132C,0.58
19,A67U A117G,2.28
20,U70A A95G,1.98
21,U70C A78U,0.52
22,A67G U103C,1.36
23,A69G A78G,0.27
24,A69G A78C,0.36

row,Variant,self-cleavage
1,A68G A111G,0.01
2,A69G G83A,2.11
3,A67G A78U,0.33
4,A69U A111G,0.04
5,A68G U127G,1.35
6,A68G U127A,1.01
7,A68G U127C,1.05
8,A68G U108A,0.04
9,A68G U108C,0.01
10,C71A A98G,0.14
11,U70C U97C,0.68
12,A68C U131C,0.94
13,A69G U132A,0.69
14,U70C A114U,0.02
15,U70C A114C,0
16,U70C U127C,0.35
17,A69G C107U,0.03
18,A66U U131C,0.84
19,A68U A90G,1.18
20,U70C A126U,0.71
21,U70C A126G,0.96
22,A67U A129U,1.14
23,A67G G136A,1.63
